Consider 32 variants from the RNAGym collection of RNA variant scans (doi:10.7554/elife.80360).

The chains are these.
B1: HDV Ribozyme (parent)
chain: GGCCGGCAUGGUCCCAGCCUCCUCGCUGGCGCCGGCUGGGCAACAUUCCGAGGGGACCGUCCCCUCGGUAAUGGCGAAUGGGACCCA

This series covers variants of B1. Description: self-cleavage, relative activity (ratio to wild type); higher = more cleavage; co-transcriptional.
For GGCCGGCAUGGUCCCAGCCUCCUCGCUGGCGCCGGCGGGGCAACAUUCCGAGGGGAGCGUCCCCUCGGUAAUGGCGAAUGGGACCCA [U37G C57G], the self-cleavage came out at 0.145.
For GGCCGGCAUGGUCCCAGCCUCAUCGCUGGCGCCGGCUGGGCAACAUUCCGACGGGACCGUCCCCUCGGUAAUGGCGAAUGGGACCCA [C22A G52C], the self-cleavage came to 0.305.
The result for GGCCGGCAUGGUCCCAGCCUCCUCGCUGGCGCCGGCUGGGCAACAUUCCGAGGGGACCGUCCCAUCGGUAAUGGAGAAUGGGACCCA [C64A C75A] reads 0.237; that for GGCCGGCAUGGUCCCAGCCUCCUCGCUGGCGCCGGUUGGCCAACAUUCCGAGGGGACCGUCCCCUCGGUAAUGGCGAAUGGGACCCA [C36U G40C], 0.0959.
The result for GGCCGGCAUGGUCCCAGCCUCCUCGCUGGCGCCGGCUGUGCAACAUUCCGAGGGGACCGUCCCCUCGGUAAUGGCGAAUGGCACCCA [G39U G82C] reads 0.168; that for GGCCGGCAUGGUCCCAGCCUCAUCGCUGGCGCCGGCUGCGCAACAUUCCGAGGGGACCGUCCCCUCGGUAAUGGCGAAUGGGACCCA [C22A G39C], 0.0437.
To GGCCGUCAUGGUCCCAGCCUCAUCGCUGGCGCCGGCUGGGCAACAUUCCGAGGGGACCGUCCCCUCGGUAAUGGCGAAUGGGACCCA [G6U C22A] belongs 0.0489.
In the case of GGCCGGCAUGGUCCCAGCCUCCUCGCUGGCGCCGGCUGGGCAACAUUCCGAGGGGACCGUCCCCUCGGUAAUGGCGUGUGGGACCCA [A77U A78G], the self-cleavage stood at 0.443.
The result for GGCCGGCAUGGUCCCAGCCUCCUCGCUGGCGCCGGCUGGGAAACAUUCCGAGGGGACCGUCCCCUCGGUAAUGGCGAAUGGUACCCA [C41A G82U] reads 0.348; that for GGCCGGCAUGGUCCCAGCCUCCUCGCUGGCGCCGGCUGGGGAACAUUCCGAGGGGACCGUCCCCUCGGUAAUGGCGAAUGGGACUCA [C41G C85U], 0.629.
As to GGCCGGCAUGGUCCCAGCCUCCUUGCUGGCGCCGGCUGGGCAACAUUCCGAGGGGACCGUCCACUCGGUAAUGGCGAAUGGGACCCA [C24U C63A], the self-cleavage worked out at 0.753.
Consider GGCCGGCAUGGUACCAGCCUCCUCGCUGGCGCCGGCUGGGCAACAUUCCCAGGGGACCGUCCCCUCGGUAAUGGCGAAUGGGACCCA [C13A G50C], for which the self-cleavage was determined as 0.283.
To GGCCGGCAUGGUCCCAGCCUCCUCGCUGGCGCCGGCUGGGCAUCAUUCCGAGCGGACCGUCCCCUCGGUAAUGGCGAAUGGGACCCA [A43U G53C] belongs 0.508; to GGCCCGCAUGGUCCCAGCCUCCUCGCUGGCGCCGGCUGGGCAACAUUCCGAGGGGCCCGUCCCCUCGGUAAUGGCGAAUGGGACCCA [G5C A56C], 0.
With GGCCGGCAUGGUCCCAGCCUCCUCGCUGGCGCCGGCUGGGCAACAUGCCGAGGGGACCGUCCCCUCGGUAAUGGCUAAUGGGACCCA [U47G G76U], the self-cleavage was found to be 1.22.
For GGCCGGCAUGGUCCCAGCCUCCUCGCUGGCGCCGGCUGGGAAACAUUGCGAGGGGACCGUCCCCUCGGUAAUGGCGAAUGGGACCCA [C41A C48G], the self-cleavage is 0.898.
The result for GGCCGGCAUGGUCCCAGCCUCCUCGCUGGUGCCGGCUGGGAAACAUUCCGAGGGGACCGUCCCCUCGGUAAUGGCGAAUGGGACCCA [C30U C41A] reads 0.543.
As to GGCCGGCAUGGUCCCAGCCUCCUCGCUGGCGCCGGCUGGGCAACAUACCGAGGGGACCGUCCCCUUGGUAAUGGCGAAUGGGACCCA [U47A C66U], the self-cleavage came out at 1.17.
Turning to GGCCUGCAUGGUCUCAGCCUCCUCGCUGGCGCCGGCUGGGCAACAUUCCGAGGGGACCGUCCCCUCGGUAAUGGCGAAUGGGACCCA [G5U C14U], the self-cleavage turned out to be 0.612.
With GGCGGGCAUGGUCCCAGCCUCCUCGCUGGCGCCGGCUGGGCAACAUUCCGAGGGGACCGUGCCCUCGGUAAUGGCGAAUGGGACCCA [C4G C61G], the self-cleavage came out at 0.325.
The result for GGCCGGGAUGGUCCCAGCCUCCUCGCUGGCGCCGGCUGGCCAACAUUCCGAGGGGACCGUCCCCUCGGUAAUGGCGAAUGGGACCCA [C7G G40C] reads 0; that for GGCCGGCAUGGUCCCAGCCUCCGCGCUCGCGCCGGCUGGGCAACAUUCCGAGGGGACCGUCCCCUCGGUAAUGGCGAAUGGGACCCA [U23G G28C], 0.
As for GGCCGGCAUGGUCCCAGCCUCCUCGCUGGUGCCGGCUGGGCAACAUUCCGAGGGCACCGUCCCCUCGGUAAUGGCGAAUGGGACCCA [C30U G55C], the self-cleavage is 0.523.
For the variant GGCCGGCAUGGUCCCAGCCUCCUCGCUGGCGCCGGCUGGGCAACAUUCUGAGGGGACCGUCCCCUCGGUAAUGGCGAAUGGGACCCA [C49U], the self-cleavage came out at 0.96.
The result for GGCCAGCAUGGUCCCAGCCUCCUCGCUGGCGCCGGCUGGGCAACAUUCCGAAGGGACCGUCCCCUCGGUAAUGGCGAAUGGGACCCA [G5A G52A] reads 0.227; that for GGCCGGCAUGGUCCCAGCCUCCUCGCUGGCGCCGGCUGGGCAACAUUCCGAGGGGACCGUCCCCUCGGUAAUGGCGAAAGGGACCGA [U79A C86G], 0.81; that for GGCCGGCAUGGUCCCAGCCUCCUCGCUGGCGCCGGCUGGGCAACAUUCCGAGGGGACCCUCCCCUCGGUAAUGGCGAAUGGGCCCCA [G59C A83C], 0.514.
In the case of GGCCGGCAUGGUCCCAGUCUCCUCGCUGGCGCCGGCUGGGCAACAUUCCGAGGGGACCGUGCCCUCGGUAAUGGCGAAUGGGACCCA [C18U C61G], the self-cleavage came to 0.53.
The result for GGCCUGCAUGGUCCCAGCCUCCUCGCUGGCGCCGGCUGGGCAACAUUCCGAGGGGACCGUCCCCUCGGUAAUGGCGAAUGGAACCCA [G5U G82A] reads 0.185.
Turning to GGCCGGCAUGGACCCAGCCUCCUCGCUGGCGCCGGCUGGGCAACAUUCCGAGGGGACCGUCCCCUCGAUAAUGGCGAAUGGGACCCA [U12A G68A], the self-cleavage came to 0.155.
To GGCCGGCAUGCUCUCAGCCUCCUCGCUGGCGCCGGCUGGGCAACAUUCCGAGGGGACCGUCCCCUCGGUAAUGGCGAAUGGGACCCA [G11C C14U] belongs 0.285.
The result for GGCCGGCAUGGUCCCAGCCUCCUCGCUGGCGCCGGCUGGGCAACAUUCCGAGGGGACCGACCCCUCGGUAAUGGCGAAUGGGACCCU [U60A A87U] reads 0.985.
